The values that follow come from article PMC8915953 (Frontiers in Microbiology, 2022).

This assay deals with T1, IFITM3-C-LgBiT (human, UniProt Q01628 1-133).
T1 construct: also called C-terminal tagged IFITM3; not shown: LgBiT, C-terminal, kept
The assay is described as follows: split reporter (BiFC, NanoBiT). As to conditions: partners not purified.

T1 sequence (Q01628 whole entry): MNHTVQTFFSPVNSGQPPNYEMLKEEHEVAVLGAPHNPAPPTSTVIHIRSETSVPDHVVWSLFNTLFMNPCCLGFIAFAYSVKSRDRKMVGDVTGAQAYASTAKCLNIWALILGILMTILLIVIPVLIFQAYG

B1: ZMPSTE24-C-SmBiT (natural protein, human, UniProt O75844 1-475, looked up)
chain: MGMWASLDALWEMPAEKRIFGAVLLFSWTVYLWETFLAQRQRRIYKTTTHVPPELGQIMDSETFEKSRLYQLDKSTFSFWSGLYSETEGTLILLFGGIPYLWRLSGRFCGYAGFGPEYEITQSLVFLLLATLFSALTGLPWSLYNTFVIEEKHGFNQQTLGFFMKDAIKKFVVTQCILLPVSSLLLYIIKIGGDYFFIYAWLFTLVVSLVLVTIYADYIAPLFDKFTPLPEGKLKEEIEVMAKSIDFPLTKVYVVEGSKRSSHSNAYFYGFFKNKRIVLFDTLLEEYSVLNKDIQEDSGMEPRNEEEGNSEEIKAKVKNKKQGCKNEEVLAVLGHELGHWKLGHTVKNIIISQMNSFLCFFLFAVLIGRKELFAAFGFYDSQPTLIGLLIIFQFIFSPYNEVLSFCLTVLSRRFEFQADAFAKKLGKAKDLYSALIKLNKDNLGFPVSDWLFSMWHYSHPPLLERLQALKTMKQH
notes: also called C-terminal tagged ZMPSTE24; not shown: SmBiT, C-terminal, kept
Take B1: the “luminescence relative to the negative control pairs” value was approximately 12 fold.
